How the values were obtained:
HLA-B*4001 (human) = experiment: competition with labeled probe peptide, purified HLA class I
HLA-B*4403 (human) = experiment: as above

SEQ ID NO 717, 7-mer of MAGE2 at position 234 (printed as WEELSML) (peptide)
IC50 (HLA-B*4001 (human)): 10.4 µM
IC50 (HLA-B*4403 (human)): 2.01 µM

— patent US20060094649A1
